Source: patent publication US20120329854A1 (UNIVERSIT TSKLINIKUM FREIBURG, published 2012)

What was measured:
[1] = target: Protein-kinase-C-related kinase 1 (PRK1), endogenous in LNCaP cells (human, UniProt Q16512 2-942); experiment: Re-ChIP in LNCaP cells, first α-PKCβI then α-PRK1
Experimental: (§1) ChIP and Re-ChIP experiments were performed as described³. LNCaP cells were cultured for 15 min (ChIP) or 210 min (Re-ChIP) in the presence or absence of 1×10⁻⁸M R1881 as indicated. Three days before harvesting, cells were transfected with siRNA (control for PKCβI: 5′-[…]-3′(SEQ ID NO 3); PKCβI: 5′-[…]-3′ (SEQ ID NO 4) (FIG. 3 b, c, f-i); control for PRK1: 5′-[…]-3′ (SEQ ID NO 14); PRK1: 5′-[…]-3′ (SEQ ID NO: 15) (FIG. 3 d, e); Invitrogen) using RNAifect (Qiagen) following the manufacturer's instructions. Immunoprecipitation was performed with specific antibodies (α-AR #06-680 lot 33529 (Upstate Biotechnology), α-H3K4me1 #ab8895 lot 535654, α-H3T6ph #ab14102 lot 481643, α-H3 #ab1791 lot 172452, α-PKCβI S660ph #ab23513 lot 596904 (Abcam), α-PKCβI (C-16) #sc-209 lot 481643, (Santa Cruz), α-H3K4me2 #cs-035-100 lot A391001 (Diagenode), α-PRK1³, and α-LSD1²) on protein A-Sepharose 4B (GE-Healthcare). For PCR, 2 μl out of 50 μl DNA extract was used. PCR primers for FKBP5 (+351/+443), KLK2 (−343/−90), SCN1A, SCN2A, GAPDH, and U6 were described previously^{1, 2, 6, 11}.
It was recently shown by the inventors that PRK1 is a gatekeeper for regulation of AR target gene expression³. PRK1 controls multiple processes during AR-dependent transcription, such as transition from the RNA polymerase II pre-initiation to the initiation complex and demethylation at lysine 9 of histone H3 (H3K9)³. […]

[2] = target: LSD1, endogenous in LNCaP cells (human, UniProt O60341 1-852); experiment: Re-ChIP in LNCaP cells, first α-PKCβI then α-LSD1, KLK2 and FKBP5 promoters
Experimental: as §1
Therefore, it was investigated whether PKCβI is present at AR target genes and phosphorylates H3T6 in vivo. To analyse first whether PKCβI binds to promoters of AR target genes, LNCaP cells were subjected to chromatin immunoprecipitation (ChIP) in the presence or absence of the AR agonist R1881. […]

Chain of Protein-kinase-C-related kinase 1 (PRK1), endogenous in LNCaP cells (Q16512 2-942 limits assumed): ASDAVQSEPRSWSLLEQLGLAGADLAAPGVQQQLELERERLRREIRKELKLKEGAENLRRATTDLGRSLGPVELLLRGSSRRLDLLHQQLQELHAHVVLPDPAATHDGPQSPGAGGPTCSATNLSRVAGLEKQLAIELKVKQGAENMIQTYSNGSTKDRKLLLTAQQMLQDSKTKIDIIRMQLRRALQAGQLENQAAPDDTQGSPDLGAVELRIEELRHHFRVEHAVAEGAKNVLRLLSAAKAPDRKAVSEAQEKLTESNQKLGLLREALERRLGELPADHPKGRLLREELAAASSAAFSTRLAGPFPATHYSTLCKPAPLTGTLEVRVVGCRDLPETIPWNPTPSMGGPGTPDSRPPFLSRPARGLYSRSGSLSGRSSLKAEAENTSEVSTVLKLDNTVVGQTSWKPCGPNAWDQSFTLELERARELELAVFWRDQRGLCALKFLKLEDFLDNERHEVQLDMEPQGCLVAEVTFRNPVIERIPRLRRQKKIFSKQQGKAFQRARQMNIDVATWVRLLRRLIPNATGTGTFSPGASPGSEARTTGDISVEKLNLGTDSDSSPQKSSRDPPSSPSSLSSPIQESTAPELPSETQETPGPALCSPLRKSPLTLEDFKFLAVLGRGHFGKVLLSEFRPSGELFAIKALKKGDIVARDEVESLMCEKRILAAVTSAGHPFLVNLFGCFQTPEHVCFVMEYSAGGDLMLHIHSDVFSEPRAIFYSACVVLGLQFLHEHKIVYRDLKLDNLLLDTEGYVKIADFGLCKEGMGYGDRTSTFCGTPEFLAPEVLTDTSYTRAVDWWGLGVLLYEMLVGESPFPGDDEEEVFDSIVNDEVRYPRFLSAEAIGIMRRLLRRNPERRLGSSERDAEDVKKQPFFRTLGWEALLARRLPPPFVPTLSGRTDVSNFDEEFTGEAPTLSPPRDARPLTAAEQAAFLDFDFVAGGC

B1: protein kinase C beta 1 (PKCβI), endogenous in LNCaP cells (enzyme)
chain: not shown
notes: here the endogenous protein on chromatin of LNCaP human prostate cancer cells; also called protein kinase C βI; PKCβ1
binding result [1]: binds | binding result [2]: binds
